B1: Kinase non-catalytic C-lobe domain-containing protein 1 (Mus musculus), Q0KK55 (parent)
chain: MQAMDPASRGFYEEDGKDLDFYDFEPLPTLPEDEENVSLADILSLRDRGLSEQEAWAVCLECSLSMRSVAHAAIFQTLCITPDTLAFNTSGNVCFMEQLSDDPEGAFVPPEFDLTGNTFEAHIYSLGATLKAALEYVPEPELEPKLSTDLEGLLSQMQAEDPRERPDLASIIALCEEKMQPVSSCRLCRSLSAIGRRVLSIESFGAFQELSENTWRGRPAPRNVGPKKMPGDLSTDPEALFPSKGLLQPPASRDAEQEAGQRPRAPSPKPLLSAPVRNGENPGQEGLADLVLDARCPLGELDRDNLRRSRLKKAQTFPRLLQESTETSTLCLSLNGSRNQLAISEFFPPDPRKLFLEGKNGLSGFKTQSKSRLWPEQEPGVQLDKTPGAGRNPHRSPGASGQLEASSPSQGSVEYKPSPSPVDAGDSDHEGHIPRSEEKIPEESRQPGSTATEQSLSLKDLLSKLGRPFREYELWALCLSCLSTLQTHKEHPAHLCLDNVLVAEDGTVFFGPPPANGAYNSLFLAPEVSEEKLVTEKASVYCVAAVLWTAAKFSVPRDHKLALPRRLKTLLLDMARRHASERPSAAEAIKVCSSYLLQRGMDSSKILAHLRASTCKVHPEEETIGLQNAFSVVELKSTTAPAPESSPGFLQVSNDTKLVAVPGPVPGLPPCCKEACELPAAFTSEATHFKPIVLAQDASVTRDQLALPSESNEKPKEGSGHLDREGTRKQAALELVEATDLKMSNQLSPGPELQGATPDPDGDSGSPSSATECSCPHGPALVTQQKGTSGTPSSPASSLPPEHRPDGEGPLGTTVLPGPTSASQGSRHPCKPPRGKAAASPSSPRGSDGHPEKPRPADRKLCPSSVDTSSPPKMTACPSLQEAMRLIQEEFAFDGYMDNGLEALIMGEYIYALKDLTFATFCGAISEKFCDLYWDEQLLKNLFKVVNGPASPSESTSEEPGSQPEHSPSRCSLSSKRPSLHGLGKEKPATTWGSGGPCSPTALSDIDSDTLSQGNFEVGFRSQKSIKVTREQQPEAEVGGQPGPSQDSTSHASDTVARLARSEDGGPAGSPGASDFQNCSPGWSSAFYEADCFGADVYNYVKDLERQKTNGHTELEAQSPELEQQLMIEKRNYRKTLKFYQKLLQKEKRNKGSEVRTMLSKLRGQLDEMKSKVQFLSLVKKYLQVMYAERWGLEPCALPVIVNIAAAPCDTLDFSPLDESSSLIFYNVNKHPGSGRQKKARILQAGTPLGLMAYLYSSDAFLEGYVQQFLYTFRYFCTPHDFLHFLLDRISSTLSRAHQDPTSTFTKIYRRSLCVLQAWVEDCYTVDFIRNAGLLGQLEDFISSKILPLDGTAEHLLALLEVGTERRADSASRGADLEDPKEAEEDTRPFNALCKRFSEDGITRKSFSWRLPRGNGLVLPHHKERQYTIASALPKPCFFEDFYGPYAKASEKGPYFLTEYSTNQLFTQLTLLQQELFQKCHPVHFLNSRALGVMDKSAAIPKASSSESLSAKTCSLFLPNYVQDKYLLQLLRNADDVSTWVAAEIVTSHTSKLQVNLLSKFLLIAKSCYEQRNFATAMQILGGLEHLAVRQSPAWRILPAKIAEVMEELKAVEVFLKSDSLCLMEGRRFRAQPTLPSAHLLAMHIQQLETGGFTMTNGAHRWSKLRNIAKVASQVHAFQENPYTFSPDPKLQAHLKQRIARFSGADVSILAADNRANFHQIPGEKHSRKIQDKLRRMKATFQ

Variants of: B1
Settings: with mtap2_mouse Map2, P20357
Sequence of mtap2_mouse Map2, P20357 (P20357 whole entry): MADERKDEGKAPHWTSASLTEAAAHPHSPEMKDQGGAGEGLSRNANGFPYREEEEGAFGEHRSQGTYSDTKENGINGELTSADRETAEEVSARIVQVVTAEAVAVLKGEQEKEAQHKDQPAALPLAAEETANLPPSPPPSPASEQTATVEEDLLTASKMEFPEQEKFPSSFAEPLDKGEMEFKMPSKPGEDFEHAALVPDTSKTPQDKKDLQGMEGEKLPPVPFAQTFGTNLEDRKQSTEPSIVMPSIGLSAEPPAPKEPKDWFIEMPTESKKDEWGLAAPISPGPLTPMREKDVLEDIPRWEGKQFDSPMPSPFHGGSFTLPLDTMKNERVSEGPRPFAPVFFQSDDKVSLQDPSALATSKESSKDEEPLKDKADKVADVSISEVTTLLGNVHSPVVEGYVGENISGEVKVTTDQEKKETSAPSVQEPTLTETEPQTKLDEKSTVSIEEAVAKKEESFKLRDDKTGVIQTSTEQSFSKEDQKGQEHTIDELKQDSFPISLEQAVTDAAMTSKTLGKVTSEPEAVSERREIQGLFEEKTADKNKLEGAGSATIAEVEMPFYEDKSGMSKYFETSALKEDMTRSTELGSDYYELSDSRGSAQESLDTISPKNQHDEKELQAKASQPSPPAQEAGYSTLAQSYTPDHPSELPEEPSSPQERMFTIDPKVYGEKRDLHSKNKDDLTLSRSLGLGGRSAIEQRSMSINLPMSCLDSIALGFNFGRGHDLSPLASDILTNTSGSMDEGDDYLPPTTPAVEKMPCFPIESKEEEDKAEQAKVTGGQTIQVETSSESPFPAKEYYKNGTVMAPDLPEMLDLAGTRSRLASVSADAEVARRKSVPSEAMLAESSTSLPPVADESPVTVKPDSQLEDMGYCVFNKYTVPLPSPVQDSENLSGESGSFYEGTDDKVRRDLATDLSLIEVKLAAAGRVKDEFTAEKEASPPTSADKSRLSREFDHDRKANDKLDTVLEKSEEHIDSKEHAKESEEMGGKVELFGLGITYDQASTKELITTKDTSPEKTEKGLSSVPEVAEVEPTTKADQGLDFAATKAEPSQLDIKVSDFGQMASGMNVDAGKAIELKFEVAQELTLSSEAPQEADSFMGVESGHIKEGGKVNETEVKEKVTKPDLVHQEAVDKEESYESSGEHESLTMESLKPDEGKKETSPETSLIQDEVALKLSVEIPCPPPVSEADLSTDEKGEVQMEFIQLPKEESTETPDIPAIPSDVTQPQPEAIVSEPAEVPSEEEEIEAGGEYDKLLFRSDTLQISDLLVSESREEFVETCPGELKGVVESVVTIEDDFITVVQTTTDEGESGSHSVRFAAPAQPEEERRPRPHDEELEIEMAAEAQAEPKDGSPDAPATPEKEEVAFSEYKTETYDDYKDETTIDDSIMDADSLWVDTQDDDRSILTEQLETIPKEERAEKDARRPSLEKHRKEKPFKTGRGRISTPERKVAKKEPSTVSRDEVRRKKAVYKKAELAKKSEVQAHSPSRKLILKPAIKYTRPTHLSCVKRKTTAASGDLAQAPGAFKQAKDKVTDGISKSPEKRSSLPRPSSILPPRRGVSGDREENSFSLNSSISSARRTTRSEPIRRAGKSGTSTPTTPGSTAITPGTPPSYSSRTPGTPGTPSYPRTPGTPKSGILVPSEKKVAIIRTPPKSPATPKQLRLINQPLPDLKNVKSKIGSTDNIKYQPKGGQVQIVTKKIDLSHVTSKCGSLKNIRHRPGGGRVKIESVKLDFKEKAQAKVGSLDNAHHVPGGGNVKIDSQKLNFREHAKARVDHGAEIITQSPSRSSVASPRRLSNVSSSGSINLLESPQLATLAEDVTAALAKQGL

Variant	effect of a mutation on the interaction
L477A	disrupting interaction

Variants of: B1
Settings: with mtap2_mouse Map2, P20357
Remark: another data set of the same source

Variant	effect of a mutation on the interaction
L474A	disrupting interaction

Variants of: B1
Settings: with mtap2_mouse Map2, P20357
Remark: another data set of the same source

Variant	effect of a mutation on the interaction
L461A	disrupting interaction
